Assay results as given in IntAct's records for PubMed 29125462.

B1: RILP-like protein 1 (Homo sapiens), Q5EBL4 (parent)
chain: MEEERGSALAAESALEKNVAELTVMDVYDIASLVGHEFERVIDQHGCEAIARLMPKVVRVLEILEVLVSRHHVAPELDELRLELDRLRLERMDRIEKERKHQKELELVEDVWRGEAQDLLSQIAQLQEENKQLMTNLSHKDVNFSEEEFQKHEGMSERERQVMKKLKEVVDKQRDEIRAKDRELGLKNEDVEALQQQQTRLMKINHDLRHRVTVVEAQGKALIEQKVELEADLQTKEQEMGSLRAELGKLRERLQGEHSQNGEEEPETEPVGEESISDAEKVAMDLKDPNRPRFTLQELRDVLHERNELKSKVFLLQEELAYYKSEEMEEENRIPQPPPIAHPRTSPQPESGIKRLFSFFSRDKKRLANTQRNVHIQESFGQWANTHRDDGYTEQGQEALQHL
B2: RILP-like protein 2 (Homo sapiens), Q969X0 (parent)
chain: MEEPPVREEEEEEGEEDEERDEVGPEGALGKSPFQLTAEDVYDISYLLGRELMALGSDPRVTQLQFKVVRVLEMLEALVNEGSLALEELKMERDHLRKEVEGLRRQSPPASGEVNLGPNKMVVDLTDPNRPRFTLQELRDVLQERNKLKSQLLVVQEELQCYKSGLIPPREGPGGRREKDAVVTSAKNAGRNKEEKTIIKKLFFFRSGKQT

Variants of: B1
Details: with rab8a_human RAB8A

Question: With R291E as the variant, how does the “effect of a mutation on the interaction” value read?
Answer: The value was “disrupting interaction strength”.

Question: R293E was tested. Which “effect of a mutation on the interaction” value did it give?
Answer: Its value is “disrupting interaction strength”.

Question: With K310E as the variant, how does the “effect of a mutation on the interaction” value read?
Answer: Its value is “disrupting interaction strength”.

Variants of: B2
Details: with rab8a_human RAB8A

Question: Which “effect of a mutation on the interaction” value does the source give for R130E here?
Answer: Its value is “disrupting interaction strength”.

Question: With R132E as the variant, how does the “effect of a mutation on the interaction” value read?
Answer: The value was “disrupting interaction strength”.

Question: For K149E, which “effect of a mutation on the interaction” value is on record?
Answer: The value was “disrupting interaction strength”.
